Measured values published in PMC5693625.
Where two headings read alike, the source gives them in different places.

Tests used:
Assay in all cases: functional binding isotherm
DDX3X [1] = biological target: T1, DDX3X (Homo sapiens, UniProt O00571 1-662)
DDX3X [2] = biological target: T1, DDX3X; remark: listed apart in the source
DDX3X [3] = biological target: T1, DDX3X; remark: listed apart in the source

T1 sequence (O00571 whole entry): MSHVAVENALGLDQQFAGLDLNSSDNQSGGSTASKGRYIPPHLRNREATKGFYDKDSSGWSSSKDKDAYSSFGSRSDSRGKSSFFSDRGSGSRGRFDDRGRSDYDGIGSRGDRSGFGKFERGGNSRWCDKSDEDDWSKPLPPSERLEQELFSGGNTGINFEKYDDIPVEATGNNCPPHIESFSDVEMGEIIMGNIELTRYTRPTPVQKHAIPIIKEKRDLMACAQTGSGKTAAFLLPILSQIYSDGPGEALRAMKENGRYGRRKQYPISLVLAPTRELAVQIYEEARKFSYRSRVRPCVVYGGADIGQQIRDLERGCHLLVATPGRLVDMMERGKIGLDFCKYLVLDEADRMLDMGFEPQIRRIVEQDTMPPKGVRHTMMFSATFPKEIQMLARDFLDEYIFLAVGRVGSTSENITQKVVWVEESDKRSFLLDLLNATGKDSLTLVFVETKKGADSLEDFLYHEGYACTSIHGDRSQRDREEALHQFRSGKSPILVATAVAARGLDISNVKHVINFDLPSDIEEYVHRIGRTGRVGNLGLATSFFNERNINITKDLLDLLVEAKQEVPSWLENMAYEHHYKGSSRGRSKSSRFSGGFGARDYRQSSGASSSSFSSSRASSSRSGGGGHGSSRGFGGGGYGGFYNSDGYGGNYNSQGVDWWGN

B1: 16 bp RNA, 25 nt 3' tail (R16-3'c/R41-3'c) (dsRNA)
RNA 1: CCGUCUUUACGGUGCU
RNA 2: AGCACCGUAAAGACGGUAAAACAAAACAAAACAAAACAAAA
In the case of B1, the “apparent K (half saturation)” value (DDX3X [1]) is reported as 118 ± 5 nM.

B2: 16 bp RNA, 15 nt 3' tail (dsRNA)
RNA 1: CCGUCUUUACGGUGCU
RNA 2: AGCACCGUAAAGACGGUAAAACAAAACAAAA
In the case of B2, the “apparent K (half saturation)” value (DDX3X [1]) is reported as 298 ± 4 nM.

B3: 16 bp RNA, 25 nt 5' tail (R16-5'a/R41-5'a) (dsRNA)
RNA 1: AGCACCGUAAAGACGC
RNA 2: AAAACAAAACAAAACAAAACAAAAUGCGUCUUUACGGUGCU
For B3, the “apparent K (half saturation)” value (DDX3X [1]) was 127 ± 20 nM and the “apparent K (half saturation)” value (DDX3X [2]) was 119 ± 35 nM.

B4: 13 bp RNA, 25 nt 5' tail (R13-5'a/R38-5'a) (dsRNA)
RNA 1: CGAAAUGCCACGA
RNA 2: AAAACAAAACAAAACAAAACAAAAUUCGUGGCAUUUCG
B4 was tested, and the “apparent K (half saturation)” value (DDX3X [3]) was 139 ± 21 nM.

B5: 19 bp RNA, 25 nt 5' tail (R19-5'c/R44-5'c) (dsRNA)
RNA 1: CAGAGGAGCAGAGGGAGCA
RNA 2: AAACUACGACUACAGUAACUACGACUGCUCCCUCUGCUCCUCUG
With B5 the “apparent K (half saturation)” value (DDX3X [2]) was 166 ± 18 nM.
